According to patent publication US20190085029:

System: T1, CDK5 inhibitory (CDK5i) peptide
T1 sequence: ARAFGIPVRCYS

For Purified recombinant p25/CDK5 complex, the “CDK5 kinase activity (radiolabeled ATP and its substrate, H1)” value was “the CDK5i peptide significantly reduced CDK5 kinase activity compared to that from a scrambled peptide-treated group”.
